The results in this text go back to patent publication US8114832 (UMC UTRECHT HOLDING B V, dated 2012).

Ends that are not written are not given here.

Experiment [1] has as its target T1, recombinant human β2-glycoprotein I (human, UniProt P02749 20-345).
T1 construct: Said to hold more cross-β structure conformation than plasma β2GPI; also called recombinant β2GPI; rec. β2GPI
T1 sequence (looked up): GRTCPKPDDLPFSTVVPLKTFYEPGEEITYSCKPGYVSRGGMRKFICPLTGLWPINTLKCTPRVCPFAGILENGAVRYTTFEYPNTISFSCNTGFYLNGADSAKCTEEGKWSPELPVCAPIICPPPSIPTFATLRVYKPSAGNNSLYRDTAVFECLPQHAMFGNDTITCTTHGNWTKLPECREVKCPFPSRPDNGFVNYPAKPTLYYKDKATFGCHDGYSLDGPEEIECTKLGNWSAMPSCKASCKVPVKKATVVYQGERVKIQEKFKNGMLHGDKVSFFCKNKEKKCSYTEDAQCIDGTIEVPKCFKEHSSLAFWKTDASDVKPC
Briefly: SPR (Biacore), chemically synthesized HGFA F immobilized (190 RU). How it is done:
The running buffer during immobilization was 10 mM HEPES pH 7.4, 140 mM NaCl. Buffers were filtrated on a 0.22 μm filter (white GSWP, 47 mm, Millipore) and degassed at room temperature.
Regeneration buffer was running buffer supplemented with 1 M NaCl.
For orientation: SPR reads the build-up and loss of mass on a sensor chip optically.

The target of experiment [2] is T1, recombinant human β2-glycoprotein I. Briefly: SPR (Biacore), chemically synthesized tPA F immobilized (395 RU). How it is done: Then, the proteins were covalently coupled to the activated dextran surface. Remaining activated groups in each of the four flow channels were blocked by injection of 35 μl of 1 M ethanolamine hydrochloride pH 8.5. EDC, NHS and ethanolamine hydrochloride were obtained from Biacore. […] The running buffer during immobilization was 10 mM HEPES pH 7.4, 140 mM NaCl. Buffers were filtrated on a 0.22 μm filter (white GSWP, 47 mm, Millipore) and degassed at room temperature.

B1: chemically synthesized HGFA F domain (other, UniProt Q04756 200-240, looked up)
chain: EKCFDETRYEYLEGGDRWARVRQGHVEQCECFGGRTWCEGT
modifications: cysteine pairing not given here; also: acetylated lysine, position not given here
notes: domain: F domain; Made from two peptides by native chemical ligation
As for B1, the binding result in experiment [1] is “no binding (tested: 0-300 mM (so in the source))”.

B2: chemically synthesized tPA F domain (other)
chain: SYQVICRDEKTQMIYQQHQSWLRPVLRSNRVEYCWCNSGRAQCHSVPVKSK
modifications: cysteine pairing not given here; also: C-terminal lysine acetylated or biotinylated
notes: as for B1
As to B2, the binding result in experiment [2] is given as “no binding (tested: 0-300 mM (so in the source))”.
